Results as given in patent publication US8889408B2, “Factor taking part in transcription control” (Sony Corporation, priority 2002, dated 2014).

Assays:
[1] = tested on: Gal4 reporter plasmid (pGal4-Luciferase); test: Gal4 reporter (luciferase) promoter repression in NIH3T3 cells; format: cell-based
Source text: Assuming that HDART takes part in more direct inhibition, it is expected that it has an autonomous repression function. To confirm the above expectation, in order that HDART can bind to DNA the full-length HDART cDNA was fused to Gal4 DNA binding region (GAL4DBD: a region having only a binding region with GAL4DNA and lacking a transcription control region) to analyze whether the transcription from the GAL4A promoter could be regulated within NIH3T3 cells.
More particularly, a Gal4 DBD-HDART plasmid capable of expressing a full-length HDART and Gal4 DBD fused protein was transfected in different amounts (0, 0.1, 0.3, and 0.5 μg) into NIH3T3 cells previously prepared to contain Gal4 reporter plasmid (pGal4-Luciferase). It should be noted that in order to make a uniform total amount of DNA used for the transfection, the amount of an expression vector was equalized to 0.5 μg by adding the appropriate amount of a vacant vector of Gal4 DBD in each transfection. 24 hours after the transfection, the expression activity (Luciferase activity) of reporter genes from the promoter was analyzed. The luciferase activity for each sample is indicated as a corrected value based on the luciferase activity obtained by introduction of a vacant vector alone as a reference (100%) (FIG. 8). It will be noted that the results of the analysis were indicated as an average of the results of three experiments, and a standard deviation is indicated as an error bar (FIG. 8A). Similar analyses were made using a different type of cell, U-205 cell, with Gal4 DBD-HDART (in an amount of 0 or 0.5 μg) (FIG. 8B).

HDAC3 = HDAC3 (Homo sapiens, UniProt O15379); test: GST pulldown analysis; format: binding; conditions: GST-HDART fused protein versus GST protein
Chain of HDAC3 (O15379 whole entry, species assumed, the tested form may be a part): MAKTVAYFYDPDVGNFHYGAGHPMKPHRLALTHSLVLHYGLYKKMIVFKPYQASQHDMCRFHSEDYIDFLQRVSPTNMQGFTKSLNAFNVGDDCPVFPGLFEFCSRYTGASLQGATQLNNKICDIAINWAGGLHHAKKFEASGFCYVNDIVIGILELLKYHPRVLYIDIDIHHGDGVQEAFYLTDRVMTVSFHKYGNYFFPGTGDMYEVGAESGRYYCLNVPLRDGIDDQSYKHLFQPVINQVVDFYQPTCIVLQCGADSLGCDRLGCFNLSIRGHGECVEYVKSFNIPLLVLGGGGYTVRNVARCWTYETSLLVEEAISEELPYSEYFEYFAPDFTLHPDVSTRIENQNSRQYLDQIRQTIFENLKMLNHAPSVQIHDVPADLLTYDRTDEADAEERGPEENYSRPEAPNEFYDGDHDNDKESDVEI
Source text: Further, the direct interaction between HDART and HDAC3 was investigated by GST pulldown analysis. The GST pulldown analysis was essentially carried out according to a known procedure (Tzamarias, D., and Struhl, K. (1995) Genes Dev 9(7), 821-31.). Using TNT (Registered Trademark) in vitro transcription/translation system (Promega), the in vitro translation of HDAC3 was made in the presence of ^35S-methionine. GST protein or GST-HDART fused protein was, respectively, expressed within Escherichia coli, followed by purification in a GST binding buffer solution (50 mM tris-HCl, 200 mM LiCl, 0.5% NP40, 5 mM EDTA, 1 mM PMSF) by use of glutathione sepharose. A binding reaction solution containing GST-HDART fused protein or control GST protein (about 1 μg) and ^35S-radio-labeled in vitro translation product (10 μl) in 1 ml of the GST binding buffer solution was prepared. This reaction solution was incubated at 4° C. for one hour while shaking, after which the resulting the sepharose-GST protein complex was washed five times with the GST binding buffer solution. […] It was confirmed by Coomassie brilliant blue staining that the GST fused protein was equally electrophoresed, and ^35S-radio-labeled HDAC was detected according to autoradiography.

Skip = molecular target: T1, Skip (Homo sapiens, UniProt Q13573); test: Yeast two-hybrid analysis (β-galactosidase) of HDART-Skip interaction; format: binding; design: expressed in transfected cells; host or cells: Saccharomyces cerevisiae Y190; conditions: Gal4DBD-HDART and deletion mutants with Gal4AD-Skip; β-galactosidase activity
T1 sequence (Q13573 1-536): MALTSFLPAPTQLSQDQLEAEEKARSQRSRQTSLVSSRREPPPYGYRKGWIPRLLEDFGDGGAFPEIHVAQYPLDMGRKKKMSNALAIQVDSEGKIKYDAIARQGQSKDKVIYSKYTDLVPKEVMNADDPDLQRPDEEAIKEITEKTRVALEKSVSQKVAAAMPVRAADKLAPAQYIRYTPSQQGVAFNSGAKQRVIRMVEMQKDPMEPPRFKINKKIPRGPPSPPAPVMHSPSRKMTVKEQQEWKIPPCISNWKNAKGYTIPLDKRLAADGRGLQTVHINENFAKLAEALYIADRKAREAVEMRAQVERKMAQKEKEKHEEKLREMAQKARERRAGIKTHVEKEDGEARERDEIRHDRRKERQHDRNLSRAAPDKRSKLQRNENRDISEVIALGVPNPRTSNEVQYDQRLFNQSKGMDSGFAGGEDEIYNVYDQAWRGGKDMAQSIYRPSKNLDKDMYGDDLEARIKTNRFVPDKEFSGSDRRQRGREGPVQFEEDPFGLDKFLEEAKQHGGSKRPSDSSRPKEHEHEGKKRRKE
Source text: In order to isolate a protein that binds to this HDART, a yeast two-hybrid system was used. More particularly, a yeast MATCHMAKER two-hybrid analysis kit (Clontech) was used for the isolation. The ORF full length of HDART was inserted so that it and the Gal4 DNA binding domain reading frame were aligned in the same frame with each other within pAS-1 vector (Clontech). This bait plasmid was transformed into Saccharomyces cerevisiae Y190 along with pACT2 prey plasmid whose HeLa cDNA (Clontech) had been sub-cloned. The screening for clones into which both plasmids were introduced was carried out according to the kit protocol. […]
For mapping of regions on the Skip taking part in the interaction with HDART, a series of deletion mutations where various regions on Skip (N-terminus region (codon 1-220), nuclear hormone binding region (NHR binding, codon 221-388), and tran-activation region (TA, codon 438-536) were deleted, and the interaction between HDART and mutated Skip was analyzed according to the yeast two-hybrid analysis using Gal4DBD-HDART as set forth in Example 2. The results of the analysis are shown in FIG. 5A. The sign “+” indicated at the right of FIG. 5A indicates the observation of the interaction by the filter lift analysis of β-galactosidase activity, and the number of “+” indicates the relative intensity of the interaction. […]

B1: HDART: HDAC associated repressor TPR protein, 855 amino acids, SEQ ID NO: 2; transcription repressing factor, used as fusions or expressed from vector (protein, listed as Homo sapiens)
chain: MVVMARLSRPERPDLVFEEEDLPYEEEIMRNQFSVKCWLRYIEFKQGAPKPRLNQLYERALKLLPCSYKLWYRYLKARRAQVKHRCVTDPAYEDVNNCHERAFVFMHKMPRLWLDYCQFLMDQGRVTHTRRTFDRALRALPITQHSRIWPLYLRFLRSHPLPETAVRGYRRFLKLSPESAEEYIEYLKSSDRLDEAAQRLATVVNDERFVSKAGKSNYQLWHELCDLISQNPDKVQSLNVDAIIRGGLTRFTDQLGKLWCSLADYYIRSGHFEKARDVYEEAIRTVMTVRDFTQVFDSYAQFEESMIAAKMETASELGREEEDDVDLELRLARFEQLISRRPLLLNSVLLRQNPHHVHEWHKRVALHQGRPREIINTYTEAVQTVDPFKATGKPHTLWVAFAKFYEDNGQLDDARVILEKATKVNFKQVDDLASVWCQCGELELRHENYDEALRLLRKATALPARRAEYFDGSEPVQNRVYKSLKVWSMLADLEESLGTFQSTKAVYDRILDLRIATPQIVINYAMFLEEHKYFEESFKAYERGISLFKWPNVSDIWSTYLTKFIARYGGRKLERARDLFEQALDGCPPKYAKTLYLLYAQLEEEWGLARHAMAVYERATRAVEPAQQYDMFNIYIKRAAEIYGVTHTRGIYQKAIEVLSDEHAREMCLRFADMECKLGEIDRARAIYSFCSQICDPRTTGAFWQTWKDFEVRHGNEDTIKEMLRIRRSVQATYNTQVNFMASQMLKVSGSATGTVSDLAPGQSGMDDMKLLEQRAEQLAAEAERDQPLRAQSKILFVRSDASREELAELAQQVNPEEIQLGEDEDEDEMDLEPNEVRLEQQSVPAAVFGSLKED
[1]; Gal4 DBD-HDART plasmid 0, 0.1, 0.3, 0.5 μg, NIH-3T3 cells
  promoter activity: significantly inhibits
[1]; Gal4 DBD-HDART plasmid, highest concentration 0.5 μg, NIH-3T3 cells, 24 hours after transfection, vacant vector = 100%
  lowering of the expression of luciferase: 80%
[1]; HDART not having a GAL4 DNA binding region
  expression inhibition of luciferase: not observed
HDAC3
  pulldown of in vitro translated HDAC3: pulled down
Skip
  interaction with Skip: able to directly interact with Skip
